# Reference: US20240010687A1 (University of Washington, published 2024)
# T1: A15.5R82_Axle (C3-C3)
# T1 construct: C3 homotrimeric axle with DHR arms; also called C3 axle
# T1 chain: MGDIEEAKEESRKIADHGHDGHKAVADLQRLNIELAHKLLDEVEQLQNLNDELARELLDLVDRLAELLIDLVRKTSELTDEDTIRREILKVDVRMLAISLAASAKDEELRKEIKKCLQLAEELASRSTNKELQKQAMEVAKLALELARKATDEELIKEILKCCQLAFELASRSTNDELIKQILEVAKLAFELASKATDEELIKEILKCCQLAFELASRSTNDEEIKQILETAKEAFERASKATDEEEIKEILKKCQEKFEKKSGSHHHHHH
# T2: A113_c2arms9_Axle (D3-C5)
# T2 construct: De novo designed D3 homohexameric axle; For biolayer interferometry it was Avi-tagged and biotinylated; also called D3 axle; axle of the D3-C5 rotor
# T2 chain: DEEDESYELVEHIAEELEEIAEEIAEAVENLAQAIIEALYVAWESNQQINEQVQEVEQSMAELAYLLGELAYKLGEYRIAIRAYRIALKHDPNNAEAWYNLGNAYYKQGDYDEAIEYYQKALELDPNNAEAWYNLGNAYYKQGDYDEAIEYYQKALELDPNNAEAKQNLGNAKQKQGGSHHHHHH
# B1: A15.5R82_Ring (C3-C3) (designed binder)
# chain: MGVEELLLLARAAHHSGTTVEEAYKLAKKLGISVKELLLLARAAHNSGTTVEEAYKLALKLGISVEELLLLAKAAHYSGTTVEEAYKLALELGISVRELLLLAKAAHFAGRTVREAYALELALGALRLEDRARELIKEAEKKGDPEKLREALEALEEAVRLVEEAIKLRPDMDLAVEIAVRLARMLKRVAELLQELAKKTGDPELLKLALRALEVAVRAVELAIKSNPDNDEAVETAVRLARELKKVAEELQERAKKTGDPELLKLALRALEVAVRAVELAIKSNPDNEEAVETAKRLAEELRKVAELLEERAKETGDPELQELAKRAKEVADRARELAKKSGSHHHHHH
# notes: C3 ring of three subunits, each fused to DHR82; also called C3 ring
# B2: A113_c2arms9_Ring (D3-C5) (designed binder)
# chain: MGDRSEHAKKLKTFLENLRRHLDRLDKHIKQLRDILSENPEDERVKDVIDLSERSVRIVKTVIKIFEDSVRELEKAILWLAEELAKSPDPEDLKRAVELARAVIEANPGSNLSRKAMEIIERAARELSKLPDPEAQRTAIEAASQLATMAAATGNTDQVRRAAELMVEIARLAGTEEAQDLALDALLDVLETALQIATKIIDDANKLLEKLRRSERKDPKVVETYVELLKRHEEAVRLLLEVARVHEELVRFTIIEEKVRSPDCEDIRDAVREAEELLRENPSEMAEELLRRAIEAAVRCPDCEAIREAVRAAEELLRENPSTEAEELLRRAIEAAVRCPDCEAIREAVRAAEELLRENPSEEAKELLRRAIESAKKCPDPEAQREAKRAEEELRKEGSHHHHHH
# notes: De novo designed C5 homopentameric ring; also called C5 ring; ring of the D3-C5 rotor
# Tests used:
# A15.5R82_Axle (C3-C3) = biological target: T1, A15.5R82_Axle (C3-C3); experiment: single particle cryoEM of the assembled rotor (6.5 Å)
# Procedure: Multiple datasets were collected for each design and combined early on during processing. See table 1 and processing flowcharts for details. Briefly, images were manually curated to remove poor quality acquisitions such as bad ice or large regions of carbon. Dose-weighting and image alignment of all 50 frames was carried out using MotionCor2 (56) with 5×5 patch or with cryosparc v2 patch alignment tool with default parameters. Super-resolution krios data was binned 2X during alignment. Initial CTF parameters were estimated using CTFfind4 (57). Particle picking was done with a gaussian blob picker and in some cases followed by a template picker. Particles were extensively classified in 2D to remove junk particles and designs which may not have been intact or were damaged, yielding in some cases relatively few particles. […] In addition, the expected motion of the rotors may have introduced further heterogeneity, limiting classification efforts. Starting models for all designs were always obtained ab initio, despite clear evidence of the expected design in 2D. […] FSC 0.143 curves were generated by exporting half maps to relion for post-process. […] For density modification in Phenix (59), we used as input the exported half maps from cryosparc with default params at 100 bins and local filtering with a factor of 5. […] Directional FSC calculated using remote 3DF SC processing tool. […]
# [1] = biological target: T2, A113_c2arms9_Axle (D3-C5); experiment: EM, biolayer interferometry, SEC and SAXS of the assembled rotor
# Procedure: FIG. 13. Biolayer interferometry assays measuring in vitro assembly of ring and axle parts into a full rotary system. For each 6 designs, the equilibrium binding curves from biolayer interferometry binding assays is shown on the left and the corresponding Biolayer interferometry kinetic binding traces shown on the right. Biotinylated axles were immobilized on the tip and the binding in a solution of fre rings was measured. For both D3-C5 and D3-C3, a fresh ring solution was prepared by buffer exchange from citrate buffer to TBS with reducing agent, and immediately used for binding assays.
# Protein samples were purified by SEC in 25 mM Tris pH 8.0, 25 mM NaCl and 1% glycerol; elution fractions corresponding to the protein were further concentrated using 3K protein concentrators (Millipore Sigma) and the flow-through was used as blank for buffer subtraction. SAXS Scattering measurements were performed at the SIBYLS 12.3.1 beamline at the Advanced Light Source. […] Collected data were processed using the SAXS FrameSlice™ online server and analysed using the ScÅtter software package(23). […]
Binder,binding result (A15.5R82_Axle (C3-C3)),binding result [1]
B1,binds,
B2,,binds
